Data published in patent publication US20050085442A1.

Legend:
[1] = biological target: bovine airway smooth muscle cell mannose receptor (bovine); experiment: cell-based or functional assay
[2] = biological target: human airway smooth muscle cell mannose receptor (huASMC-MR) (human) (UniProt Q9UBG0); experiment: flow cytometry (cell sorting) of bovine airway smooth muscle cells transfected with full-length huASMC-MR cDNA plasmid; vector control 57/1718 cells

Substance | b hexosaminidase-induced mitogenesis in bovine ASMC, inhibition by antisense huASMC-MR morpholino oligonucleotides (5 µM) [1] [%] | percent of cells with increased fluorescence intensity [2] [%]
b hexosaminidase A (human placental β-hexosaminidase, Sigma) (from UniProt P06865 89-529; P07686 122-556) (enzyme) | 37 | –
FITC-ManBSA (FITC-labelled mannosylated bovine serum albumin) (from UniProt P02769 25-607) | – | 61
